Molecular target: the molecule itself
Assay: rotary shadowing electron microscopy

B1: chicken hexabrachion protein (myotendinous (M1) antigen) (natural protein, UniProt P10039 34-1808, looked up)
chain: ETGLNVTLPEDNQPVVFNHVYNIKLPVGSLCSVDLDTASGDADLKAEIEPVKNYEEHTVNEGNQIVFTHRINIPRRACGCAAAPDIKDLLSRLEELEGLVSSLREQCASGAGCCPNSQTAEGRLDTAPYCSGHGNYSTEICGCVCEPGWKGPNCSEPACPRNCLNRGLCVRGKCICEEGFTGEDCSQAACPSDCNDQGKCVDGVCVCFEGYTGPDCGEELCPHGCGIHGRCVGGRCVCHEGFTGEDCNEPLCPNNCHNRGRCVDNECVCDEGYTGEDCGELICPNDCFDRGRCINGTCFCEEGYTGEDCGELTCPNNCNGNGRCENGLCVCHEGFVGDDCSQKRCPKDCNNRGHCVDGRCVCHEGYLGEDCGELRCPNDCHNRGRCINGQCVCDEGFIGEDCGELRCPNDCHNRGRCVNGQCECHEGFIGEDCGELRCPNDCNSHGRCVNGQCVCDEGYTGEDCGELRCPNDCHNRGRCVEGRCVCDNGFMGEDCGELSCPNDCHQHGRCVDGRCVCHEGFTGEDCRERSCPNDCNNVGRCVEGRCVCEEGYMGIDCSDVSPPTELTVTNVTDKTVNLEWKHENLVNEYLVTYVPTSSGGLDLQFTVPGNQTSATIHELEPGVEYFIRVFAILKNKKSIPVSARVATYLPAPEGLKFKSVRETSVQVEWDPLSISFDGWELVFRNMQKKDDNGDITSSLKRPETSYMQPGLAPGQQYNVSLHIVKNNTRGPGLSRVITTKLDAPSQIEAKDVTDTTALITWSKPLAEIEGIELTYGPKDVPGDRTTIDLSEDENQYSIGNLRPHTEYEVTLISRRGDMESDPAKEVFVTDLDAPRNLKRVSQTDNSITLEWKNSHANIDNYRIKFAPISGGDHTELTVPKGNQATTRATLTGLRPGTEYGIGVTAVRQDRESAPATINAGTDLDNPKDLEVSDPTETTLSLRWRRPVAKFDRYRLTYVSPSGKKNEMEIPVDSTSFILRGLDAGTEYTISLVAEKGRHKSKPTTIKGSTEEEPELGNLSVSETGWDGFQLTWTAADGAYENFVIQVQQSDNPEETWNITVPGGQHSVNVTGLKANTPYNVTLYGVIRGYRTKPLYVETTTGAHPEVGELTVSDITPESFNLSWTTTNGDFDAFTIEIIDSNRLLEPMEFNISGNSRTAHISGLSPSTDFIVYLYGISHGFRTQAISAAATTEAEPEVDNLLVSDATPDGFRLSWTADDGVFDSFVLKIRDTKRKSDPLELIVPGHERTHDITGLKEGTEYEIELYGVSSGRRSQPINSVATTVVGSPKGISFSDITENSATVSWTPPRSRVDSYRVSYVPITGGTPNVVTVDGSKTRTKLVKLVPGVDYNVNIISVKGFEESEPISGILKTALDSPSGLVVMNITDSEALATWQPAIAAVDNYIVSYSSEDEPEVTQMVSGNTVEYDLNGLRPATEYTLRVHAVKDAQKSETLSTQFTTGLDAPKDLSATEVQSETAVITWRPPRAPVTDYLLTYESIDGRVKEVILDPETTSYTLTELSPSTQYTVKLQALSRSMRSKMIQTVFTTTGLLYPYPKDCSQALLNGEVTSGLYTIYLNGDRTQPLQVFCDMAEDGGGWIVFLRRQNGKEDFYRNWKNYVAGFGDPKDEFWIGLENLHKISSQGQYELRVDLRDRGETAYAVYDKFSVGDAKTRYRLRVDGYSGTAGDSMTYHNGRSFSTFDKDNDSAITNCALSYKGAFWYKNCHRVNLMGRYGDNNHSQGVNWFHWKGHEYSIQFAEMKLRPSSFRNLEGRRKRA
Question: Which “stoichiometry N” value does the source give for B1 here?
Answer: 6

Source: paper PMC2114792 (The Journal of Cell Biology, 1987)
